Laboratory results reported in the supplement of paper PMC9170038.

Tested on: K4 kissing-loop RNA reporter
Experiment: apparent KD of K4 kissing-loop reporter; higher = weaker reporter binding
Details: Eterna round: R107
Description: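 RNA-MaP round R107: designed RNA switches with theophylline, tryptophan, arginine or FMN aptamers are transcribed on-chip within common flanks. They are titrated with a labelled K4 kissing-loop RNA reporter in RNA-MaP buffer (100 mM Tris pH 7.5, 80 mM KCl, 4 mM MgCl2), without ligand or with the indicated ligand. Median apparent KD per design.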

[1] = input ligand: theophylline 20 uM
[2] = input ligand: tryptophan 2.4 mM
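Note: bound reporter read as fluorescence of individual clusters on recovered sequencing chips by microscopy, with normalized cluster intensities fitted with a binding model.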

Sequence | apparent KD of K4 kissing-loop reporter (input ligand: FMN 200 uM) [nM] | apparent KD of K4 kissing-loop reporter (input ligand: arginine 13.2 mM) [nM] | apparent KD of K4 kissing-loop reporter (input ligand: none) [nM] | apparent KD of K4 kissing-loop reporter [1] [nM] | apparent KD of K4 kissing-loop reporter [2] [nM]
UGGGUGUAGUGAUGUUAUAUAGAGAGUGAUACCAGUUUAGAGAAGAACCCUUGGCAGCAUAGAAGAGUAUCAUUGGAGGAGGAGG [ExTheophyl.Av] | 361 | 413 | 336 | 268 | 289
GGUCGAGUGAUGUUCGAUGUUAUGCAUUCAGAGGAUAUAGGAUUGGCUAGAAGGCUGAAUCGAUCUUCGAGUGAUGUUCGAGGAU [Same State FMN A GF 8] | 116 | 112 | 117 | 101 | 128
AAACAUCACUACUUCUUCGUCCUAGAAGACUAGGAUAUCAGGAAACUGAGAAGGAGUCUCUGCAGUGAUGUUGCAGCUAGGACGA [[K]'-[F2]'-[F1]'-[F1]-[F2]-[K1]-[K2]-[F]''_Design2] | 191 | 219 | 194 | 249 | 280
GGGCGGCAGACGGCCGCCACUCAUAGCAGCCAGUGAGUGAUGUUCGUGGCGGAGUGAUGUUCCUAGAGGACCGGGUUUGUUGUUC [Same State Tryptophan B GF 19] | 551 | 354 | 464 | 471 | 596
CCAUUCUGUUACGAUACCAGUCAAAGAUAUUUGAUCAAUACCCUCGCCGAGUGAUGUUCGGACCCUUGGCAGCGUCUGGGACAGG [fdxxvmullin] | 1320 | 437 | 558 | 427 | 550
AAAUAAAGCAGUCAUCCAGUGAUGUUGGAAGGAGCGUGCGAAAGCACAGGUAGGUCGCCAAAACCUAAUAAUGGCUGCUAAAUAA [#SwitchBubble 2 #K4Early] | 170 | 211 | 176 | 210 | 141
AGUGUUAGGUUAGAUACCAGCCGUCCGUGGAUAACCCUCGGACCGCCAGUGAUGUUGGCAGGCCCUUGGCAGCUAACAGAACAGA [Beriisa] | 263 | 208 | 250 | 152 | 199
CAGAACAUAUAUAGAAACUAUAUAUGAGAUACCAGUCAAAUUAAAGACCCUUGGCAGCUCAGGCGAGUGAUGUUCGCAGGCUAAC [Astros-Gfrank-modulation#2] | 95.9 | 109 | 102 | 122 | 88.3
CGCGCUGGUUGAGAGGUUGGCGCGAAUGAUACCAGUAUAUAAGAAUACCCUUGGCAGCAUAAGAAAGAUAUAGUGAUGUUGUAUA [SSTheophA.H] | 592 | 344 | 404 | 448 | 370
CCCAGUGAUGUUGGUUAAUAUAUUGAUUAACGAGGACCGGUACGGCCGCCACUCGAUAUUUCUAUAAUUAAAAGUUUUGUUUAAA [JR_SSTryptoA_Sub001] | 459 | 426 | 435 | 417 | 327
GCGCGUCAUGUCAGCGGUGACACUGUCGAUACCAGUGCCGAAAGGCGCCCUUGGCAGCGACGUGCUGGAGUGAUGUUCCAGCGUU [#2 Exclusion - Theophylline A Attempt #30 (HarryS)] | 154 | 135 | 151 | 149 | 145
UGAUAGGACAGAAGGAGCGGUAGUGAUGUUACCAAAAGAAUAAGGUGUCAAAAGACACCCUACCAGGUAGGUCGCUGUCCUAUCU | 170 | 237 | 189 | 220 | 179
UGUCGUUCUAGUGAUGUUAGGACAGUUAUGAAGGAUAUACACACUCGUAGAAGGUCAGCUGCGGAAUGGCGAUUACGGUGAUUCG [theeternabot_sameState_KL_FMN_A_39] | 157 | 107 | 128 | 132 | 136
GGUGACAGCCAGGAGUGAUGUAUAGAAUAGCGAGGACCGGUACGGCCGCCACUCGUGAAGAGAAGGGAGUGAUGUUCCGUAAUGG [Kazoo C] | 627 | 185 | 170 | 386 | 140
GGUGCUGUCUGUGCCGCCUUCCUCGUUCCUCGAGGACCGGUACGGCCGCCACUCGAGUGAUGUUUGGGUAGCGAUCCCUGCUAGC [Bdazzled - #15 Exc. Tryptophan A] | 1010 | 737 | 1180 | 1030 | 917
UUGGGCAGUGAUGUUGGCUAGGCCACAGAUACCAGACGCAUGCACGUCCCUUGGCAGCUGCGAAAGUUAGACUUGUAAUGAUAGU [theeternabot_sameState_KL_Theo_A_45] | 418 | 181 | 321 | 338 | 217
UGUCAUUGGUCUGAUACCAGCUGAUCGGAAACGAUCUUGCUGGAGUGAUGUUCCAGGAAAAGCCCUUGGCAGCAGACCGAUGACU [TheoBS 10 #SwitchBubble #StaticStem] | 1320 | 445 | 1210 | 1100 | 1220
GUAGCCCUAUGUGAUACCAGACGGUAUAAAAUCCUGGCGGCCAGUGAUGUUGGCCAUCGCGUCCCUUGGCAGCACCAAGGCUGUA [theeternabot_sameState_KL_Theo_B_18] | 122 | 143 | 142 | 118 | 114
AGACCACAAAGUGGUCAGUGUUCGCUCCGGCGAGGACCGGUACGGCCGCCACUCGCGAGUGAUGUUCGCGAGCGGAGCGAACACA [Omei KL Tryp A Exc A v2] | 101 | 86.6 | 99.9 | 88.9 | 95.1
AACUGUCAAGGACAACAUUACUGAGGUGAUACCAGCAUCGAAAGAUGCCCUUGGCAGCACUGACUUGCAGUGAUGUUGCAAGUAA [BrourdMod 8 - Jieux - Exclusion - Theophylline A] | 208 | 162 | 199 | 215 | 189
AGGCGACGCAAAGGAUAUCACGGUUUUCUAGUGAUGUUAGUCAAGACCGACCGAGAAAUCAGUGUUUGAGAAGGUUGAACGUCGC [theeternabot_sameState_KL_FMN_B_46] | 496 | 682 | 1870 | 756 | 970

Sequence | apparent KD of K4 kissing-loop reporter (input ligand: FMN 200 uM) [nM] | apparent KD of K4 kissing-loop reporter (input ligand: arginine 13.2 mM) [nM] | apparent KD of K4 kissing-loop reporter (input ligand: none) [nM] | apparent KD of K4 kissing-loop reporter [1] [nM] | apparent KD of K4 kissing-loop reporter [2] [nM]
GCAAAACGCAGUGAUGUUGCGAUAUCGGAAGGAGCGCGUGAAAACGCAGGUAGGUCGCCGAUUCAGUGAGUAUCUCGCUGUUUGC [Arginine A K4 18] | 258 | 283 | 293 | 259 | 232
GCGAAGUGAUGUUUCGCCAAUAUUUGAUGAAAGGAUAUCUACUUGAAGAGAAGGUUCAUAUGACUCAAUACCUGACUUGGACCCG [theeternabot_sameState_KL_FMN_A_37] | 86.8 | 84.2 | 81.4 | 82.9 | 74.6
GCCAGUGAUGUUGGCGAACCAACGCAUGCAGAGGAUAUUCGUUCGGGAAGAAGGCUGCAGCGUUCUCUCCCGCAGUGAUGUUGCG [Same State FMN A GF 25] | 164 | 141 | 169 | 153 | 150
ACCAUCAAAGAUGGCCAGGACUCCGCUGAUACCAGUGUGAAAACACUCCCUUGGCAGCAGGUGAGUGAUGUUCACAGUCCAUGGA [Omel KL Theo A SS B v3] | 145 | 116 | 150 | 146 | 143
GGAUAGGACAGAGGAUAUCUCUGAGGCAAGAAAACUUGUCUCUAAGGAGAUGACUCAGUGAUGUUGAGAGAAGGCUGUCCUAUCG [FmnBX 12 - #SwitchBubble #StaticStem] | 230 | 144 | 155 | 140 | 157
CAUAGGAAACUAUGUAUCUCUCUUACUGAAGGAGCGCGUGAAAACGCAGGUAGGUCGCAGAAUUUAAUAGAGAGUGAUGUUCUCU [Ex Arginine A K4 7] | 239 | 202 | 254 | 244 | 208
AAGCAGUCCCUUGUAGUCAUCGAAGAUGAACGAGGACCGGUACGGCCGCCACUCGGAGUGAUGUUCCGAAGGCUGCAAAAUAAAA [MatMod 19 - Jieux - Exclusion - Tryptophan A] | 122 | 123 | 135 | 152 | 310
AGAACUGUCUUGGAUACCAGUGAUGUUGGUAUCGAUGUGUGAGUGCAAAGCGUCCCACAUCGCCCUUGGCAGCUAAGACAGUUCA [Omei KL Theo B Exc A v5] | 331 | 292 | 341 | 375 | 292
GGGCCUAUUGAUGCUGGAGUAAUUCUGGAAGGAGCGCUCAAAGGAGCAGGUAGGUCGCCAGUAUACAAGGGCAGUGAUGUUGCCC [Entimalati] | 143 | 162 | 161 | 146 | 142
GCCUAGUGAUGUUGGGUAAUUUAAACCGGGCGAGGACCGGUACGGCCGCCACUCGGAAACACAACAAAAUUUAAUUUAAUUUAAA [Exclusion - Trytophan A] | 176 | 138 | 174 | 204 | 152
ACGUCUCGUUAAAUCGUGGUUUCGAUCGAUACCAGUAGCGAGAGUUACCCUUGGCAGCGAAAUGAGUGAUGUUCAUGAAAGAAGA [KL-XTheoA9] | 65.2 | 109 | 69.4 | 130 | 57.3
GCCGUACGCAUGGAUACCAGCUAUUAGAGUGAUGUUCUAUGGCCCUGCCAGAGUAGCUGUAGCCCUUGGCAGCCAUGCGUACGGC | 148 | 119 | 130 | 144 | 140
UUUUUCGCGUUUGAUACCAGCAGAGUUGUUCGUGUCUGGAACAUGAGUGAUGUUCAUGUCUGCCCUUGGCAGCAAACGGGAGAAG [KL-XTheo-B13] | 127 | 112 | 103 | 87.8 | 124
AACUGCCAAGGAACAUUGUAAGAAGGUGAUACCAGCAUCGAAAGAUGCCCUUGGCAGCACCAACUUGCAGUGAUGUUGCAAGUAA [Design5] | 183 | 156 | 165 | 180 | 159
ACUACGAAGACGGCCGCCACUGAUAUUCGUAGAUCCAUCAUUACAUGAGUGAUGUUCAUGUAUAUCAGGACCGGGUCAAGAUGGU [KL-XTryp-B17 #analogue] | 184 | 146 | 164 | 162 | 226
UGAUAGGACAGAAGGAGCGGUAGUGAUGUUGCCAAAAGGGUAAGGUGUCAAAAGACACCCUGCCAGGUAGGUCGCUGUCCUAUCU | 99.7 | 93.8 | 98.5 | 96.6 | 81.9
GCAUAUACGAGAAGGAGCGUGCAUGACGAAUUAAUCAUCGACCUUAGUGAUGUUAAGGACGCACAGGUAGGUCGCUCGUGUAUGC [#04 K4 Arginine B Same State] | 380 | 322 | 347 | 345 | 354
GUUUGGCUCCGAAGACGGCAGUGGGAAAUAUAGGAUAUCUAGAAAUAGAGAAGGAUACUAGUGAUGUUAGUAUCGGAUAAAACAA | 85.9 | 76.3 | 73 | 83.7 | 79.8
CACGCCUGUUGUCUGGUAGACAGAUCAGAUACCAGACAUAGUGAUGUCCCUUGGCAGCUGAACAUCCAGUGAUGUUGGAUGCGUU [Theo A SS t11] | 447 | 333 | 446 | 394 | 371
GUGAAGGAGCUGCAGUGAUGUUGCAGAGACUAGGAUAUCAGGAAACUGAGAAGGAGUCAACUCCUUCACCUAGACACUGCAGAAA [[F]''-[K1]-[K2]-[F1]-[F2]-[F2]'-[F1]'-[K]'_Design1] | 110 | 108 | 128 | 170 | 143
ACCUACGAUCACAAAAGUGAUUGUAGGAUCUAGGAUAUGCUGAAGAGCAGAAGGAGAGUGAUGUUCUCAUCUCACGAAAGUGAGA [whbob_Ex_FMNA__2th189] | 408 | 189 | 216 | 263 | 201
